Consider 1 substance from patent publication US20140193357A1.

The test addresses T1, G-CSF receptor on the surface of murine myeloid leukemia cell line G-NFS-60 (murine (cell line G-NFS-60)) (UniProt P40223).
T1 sequence (looked up): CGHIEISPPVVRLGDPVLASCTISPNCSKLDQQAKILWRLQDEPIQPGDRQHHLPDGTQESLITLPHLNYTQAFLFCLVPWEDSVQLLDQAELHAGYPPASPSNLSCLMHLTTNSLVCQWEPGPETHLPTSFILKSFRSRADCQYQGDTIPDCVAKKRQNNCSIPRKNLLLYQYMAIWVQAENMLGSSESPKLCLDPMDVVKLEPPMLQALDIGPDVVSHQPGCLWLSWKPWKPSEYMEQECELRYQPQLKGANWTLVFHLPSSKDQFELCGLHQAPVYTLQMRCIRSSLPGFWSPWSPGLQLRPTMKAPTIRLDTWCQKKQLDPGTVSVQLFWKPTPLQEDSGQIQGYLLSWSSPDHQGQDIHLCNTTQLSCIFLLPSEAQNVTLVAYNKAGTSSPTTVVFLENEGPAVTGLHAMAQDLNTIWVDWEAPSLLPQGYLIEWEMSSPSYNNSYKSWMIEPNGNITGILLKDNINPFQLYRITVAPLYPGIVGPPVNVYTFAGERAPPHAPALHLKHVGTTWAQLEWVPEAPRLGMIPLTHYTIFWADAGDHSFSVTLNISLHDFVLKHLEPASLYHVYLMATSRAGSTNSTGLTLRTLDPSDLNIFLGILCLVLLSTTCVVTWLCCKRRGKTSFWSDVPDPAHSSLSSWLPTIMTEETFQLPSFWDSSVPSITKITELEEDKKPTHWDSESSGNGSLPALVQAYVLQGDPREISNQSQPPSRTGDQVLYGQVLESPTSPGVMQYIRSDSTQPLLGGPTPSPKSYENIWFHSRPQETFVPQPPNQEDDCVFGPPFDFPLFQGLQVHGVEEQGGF
Description: cell-based or functional assay.

Where “and” joins values, the source holds several entries; their conditions need not be identical. Equal values may be shown once.

“Monomer G-CSF (from UniProt P09919 31-204) (ligand)”: the Biologic activity (proliferation of G-NFS-60 cells, MTS dye) is 1e+08 IU/mg and 6e+07 IU/ml.
